# Test results as given in patent US20260167959A1, “APTAZYME-BASED REGULATABLE GENE EXPRESSION SYSTEMS” (REJUVENATE BIO INC, priority 2022, published 2026).
# Tested on: Renilla luciferase RNA
# Experiment: Barcoded aptazyme variant library screen: un-cleaved Renilla luciferase RNA by barcode read counts, HEK293-T cells
# Assay type: cell-based
# Conditions: triplicate
# Description: Based on the findings from Example 1, an aptazyme variant library was generated from the T3H48 ribozyme with one of seven variant theophylline aptamers inserted sequentially after each nucleotide of the DNA sequence encoding the T3H48 ribozyme sequence. […] The seven variant theophylline aptamers vary in their communication channels, which are the ribonucleotides of the aptamer that attach to the ribozyme sequence (see, Table 2).
# The library was barcoded with unique sequences of nine nucleotides flanked by forward and reverse primer amplification sequences.
# The aptazyme library was then PCR amplified and cloned into the psiCHECK™-2 dual luciferase vector in the 3′ UTR of the Renilla luciferase gene. […] The next day, the cells were isolated followed by DNA and RNA extraction using standard methods. The purified RNA was then converted to cDNA and the barcoded portion of the aptazyme library was PCR amplified. Similarly, the DNA was PCR amplified and all the samples were sequenced. All experimental conditions (with theophylline and without theophylline) were performed in triplicate. The read count for each barcode was determined with a custom build code and the data was normalized to identify the un-cleaved fractions of the Renilla luciferase RNA from cells that were cultured in the presence or absence of theophylline for each aptazyme, which was used to obtain the fold-change between ON- and OFF-states (FIG. 2).
# [1] = un-cleaved Renilla luciferase RNA by barcode read counts, with 1 mM theophylline (ON) over without theophylline (OFF), HEK293-T cells
# [2] = un-cleaved Renilla luciferase RNA, HEK293-T cells cultured with 1 mM theophylline (ON) over without theophylline (OFF), barcode read counts
Molecule,Fold change in RNA expression between the ON state and the OFF state [1],Fold change in RNA expression between the ON state and the OFF state [2]
"RA318 (nucleic acid, expressed or natural sequence) DNA: GCGGAATACCAGCATCGTCTTGATGCCCTTGGAAGTCCGCGCGTCCTGGATTCGCGGAAACGCGTACATCCAGCTGACGAGTCCCAAATAGGACGAAACGCGC",0.9,
"RA316 (nucleic acid, expressed or natural sequence) DNA: GCGCGTCCTGGATGGAATACCAGCATCGTCTTGATGCCCTTGGAAGTCCTCGCGGAAACGCGTACATCCAGCTGACGAGTCCCAAATAGGACAAAACGCGC",0.9,
"RA314 (nucleic acid, expressed or natural sequence) DNA: GCGCGTCCTGGATTCGCGGAAACGCGTACATCCAGCTGACGAGTCCCAAATAGGGAATACCAGCATCGTCTTGATGCCCTTGGAAGTCCGACGAAACGCGC",1.0,
"RA311 (nucleic acid, expressed or natural sequence) DNA: GCGCGTCCTGGATTCGCGGAAACGCGTCGAGAATACCAGCATCGTCTTGATGCCCTTGGAAGTCTCGACATCCAGCTGACGAGTCCCAAATAGGACGAAACGCGC",1.0,
"RA308 (nucleic acid, expressed or natural sequence) DNA: GCGCGTCCTGGATTCGCGGAAACGCGTACATCCAGCAGTGATACCAGCATCGTCTTGATGCCCTTGGCAGCACTTGACGAGTCCCAAATAGGACGAAACGCGC",1.0,
"RA319 (nucleic acid, expressed or natural sequence) DNA: GCGCGTCCTGGATTCGCGGAAACGCGTACAGAGAATACCAGCATCGTCTTGATGCCCTTGGAAGTCTCTCCAGCTGACGAGTCCCAAATAGGACGAAACGCGC",0.9,
"RA303 (nucleic acid, expressed or natural sequence) DNA: GCGCCGGAATACCAGCATCGTCTTGATGCCCTTGGAAGTCCGGTCCTGGATTCGCGGAAACGCGTACATCCAGCTGACGAGTCCCAAATAGGACGAAACGCGC",1.0,
"RA310 (nucleic acid, expressed or natural sequence) DNA: GCGCGTCCTGGATTCGCGGAAACGCGTACATCCAGCTGACGAGTCCCAAATAGAATACCAGCATCGTCTTGATGCCCTTGGAAGTCTAGGACGAAACGCGC",1.0,
"RA307 (nucleic acid, expressed or natural sequence) DNA: GCGCGTCCTGGATTCGCGGAAACGCGTACATCCAGCTGACGAGTGAGAATACCAGCATCGTCTTGATGCCCTTGGAAGTCTCCCCAAATAGGACGAAACGCGC",1.0,
"RA031 (nucleic acid, expressed or natural sequence) DNA: GCGCGTCCGAGAATACCAGCATCGTCTTGATGCCCTTGGAAGTCTCTGGATTCGCGGAAACGCGTACATCCAGCTGACGAGTCCCAAATAGGACGAAACGCGC",,2.3 fold
"RA298 (nucleic acid, expressed or natural sequence) DNA: GCCGGAATACCAGCATCGTCTTGATGCCCTTGGAAGTCCGGCGTCCTGGATTCGCGGAAACGCGTACATCCAGCTGACGAGTCCCAAATAGGACGAAACGCGC",,1.0 fold
"RA315 (nucleic acid, expressed or natural sequence) DNA: GCGCGTCCTGGATTCGCGGAAACGCGTACATCCAGCTGACGAGTCCCAAATAGGACGAACGAGAATACCAGCATCGTCTTGATGCCCTTGGAAGTCTCGACGCGC",1.0,
"RA317 (nucleic acid, expressed or natural sequence) DNA: GCGCGTCCTGGATTCGCGGAAACGCGTACATCCAGCTGACGAGTCCCAAATAGCCGGAATACCAGCATCGTCTTGATGCCCTTGGAAGTCCGGGACGAAACGCGC",0.9,
"RA300 (nucleic acid, expressed or natural sequence) DNA: GCGCGTCCTGGCGAGAATACCAGCATCGTCTTGATGCCCTTGGAAGTCTCGATTCGCGGAAACGCGTACATCCAGCTGACGAGTCCCAAATAGGACGAAACGCGC",,1.0 fold
"RA302 (nucleic acid, expressed or natural sequence) DNA: GCGCGTCCTGGATTCGCGGAAACGCGTACATCCAGCTGACGAGAATACCAGCATCGTCTTGATGCCCTTGGAAGTCTAGTCCCAAATAGGACGAAACGCGC",1.0,
"RA297 (nucleic acid, expressed or natural sequence) DNA: GCGCGGGAATACCAGCATCGTCTTGATGCCCTTGGAAGTCCTCCTGGATTCGCGGAAACGCGTACATCCAGCTGACGAGTCCCAAATAGGACGAAACGCGC",,1.0 fold
"RA309 (nucleic acid, expressed or natural sequence) DNA: GCGCGAGAATACCAGCATCGTCTTGATGCCCTTGGAAGTCTTCCTGGATTCGCGGAAACGCGTACATCCAGCTGACGAGTCCCAAATAGGACGAAACGCGC",1.0,
"RA306 (nucleic acid, expressed or natural sequence) DNA: GCGCGGGAATACCAGCATCGTCTTGATGCCCTTGGAAGTCCTCCTGGATTCGCGGAAACGCGTACATCCAGCTGACGAGTCCCAAATAGGACAAAACGCGC",1.0,
"RA029 (nucleic acid, expressed or natural sequence) DNA: GCGCGTCCTGGATTCGCGGAAACGGGAATACCAGCATCGTCTTGATGCCCTTGGAAGTCCCGTACATCCAGCTGACGAGTCCCAAATAGGACGAAACGCGC",,2.3 fold
"RA304 (nucleic acid, expressed or natural sequence) DNA: GCGCGAGAATACCAGCATCGTCTTGATGCCCTTGGAAGTCTCGCGTCCTGGATTCGCGGAAACGCGTACATCCAGCTGACGAGTCCCAAATAGGACGAAACGCGC",1.0,
"RA313 (nucleic acid, expressed or natural sequence) DNA: GCGCGTCCTGGATTCGCGGAAACGCGTACATCCAGCTGACGAGTCCCAACGGAATACCAGCATCGTCTTGATGCCCTTGGAAGTCCGATAGGACGAAACGCGC",1.0,
"RA299 (nucleic acid, expressed or natural sequence) DNA: GCGCGTAGTGATACCAGCATCGTCTTGATGCCCTTGGCAGCACTCCTGGATTCGCGGAAACGCGTACATCCAGCTGACGAGTCCCAAATAGGACGAAACGCGC",,1.0 fold
"RA312 (nucleic acid, expressed or natural sequence) DNA: GCGCGTCCTGGATTCGCGGAAACGCGTACATCCAGCTGACGAGGAATACCAGCATCGTCTTGATGCCCTTGGAAGTCCGTCCCAAATAGGACGAAACGCGC",1.0,
"RA301 (nucleic acid, expressed or natural sequence) DNA: GCGAGTGATACCAGCATCGTCTTGATGCCCTTGGCAGCACTCGTCCTGGATTCGCGGAAACGCGTACATCCAGCTGACGAGTCCCAAATAGGACGAAACGCGC",,1.0 fold
"RA305 (nucleic acid, expressed or natural sequence) DNA: GCGCGTCCTGGATTCGCGGAAACGCGTACATCAGTGATACCAGCATCGTCTTGATGCCCTTGGCAGCACTCAGCTGACGAGTCCCAAATAGGACGAAACGCGC",1.0,
"RA030 (nucleic acid, expressed or natural sequence) DNA: GCGCGTCCTGGATTCGCGGAAACGCGTACATCCAGCTGACGAGTCCCAAATAGGACGAAACGAGAATACCAGCATCGTCTTGATGCCCTTGGAAGTCTCGCGC",,2.3 fold
